Data reported in US20260184782A1 (TWIST BIOSCIENCE, published 2026).
Residue numbers refer to the chain shown, from its start.

T1: TIGIT (UniProt Q495A1 22-141, limits assumed)
T1 construct: also called T cell immunoreceptor with Ig and ITIM domains; hTIGIT
T1 sequence (looked up): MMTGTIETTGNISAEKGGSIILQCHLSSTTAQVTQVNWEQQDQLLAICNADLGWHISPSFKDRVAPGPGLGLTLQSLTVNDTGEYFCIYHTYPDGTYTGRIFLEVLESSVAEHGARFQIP

T2: TIGIT (UniProt Q495A1 22-141, limits assumed)
T2 construct: construct not described; also called T cell immunoreceptor with Ig and ITIM domains
T2 sequence (looked up): T1 sequence (looked up)

T3: TIGIT (T cell immunoreceptor with Ig and ITIM domains) (UniProt Q495A1 22-141, limits assumed)
T3 sequence (looked up): T1 sequence (looked up)

T4: TIGIT on PBMCs (UniProt Q495A1 22-244, limits assumed)
T4 sequence (looked up): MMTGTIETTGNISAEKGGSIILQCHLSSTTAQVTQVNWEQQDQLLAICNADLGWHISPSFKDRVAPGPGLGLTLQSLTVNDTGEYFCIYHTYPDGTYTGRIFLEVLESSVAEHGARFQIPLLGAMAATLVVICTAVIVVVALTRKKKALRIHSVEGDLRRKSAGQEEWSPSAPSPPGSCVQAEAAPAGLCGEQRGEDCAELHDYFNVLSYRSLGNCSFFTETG

T5: human TIGIT-Fc (human, UniProt Q495A1 22-141, limits assumed)
T5 construct: not shown: Fc; not described
T5 sequence (looked up): T1 sequence (looked up)

B1: TIGIT-471-035 (antibody, V domains shown)
VH: EVQLLESGGGLVQPGGSLRLSCAASGFTFNAYPMTWVRQAPGKGLEWVSAITGSGGSTYYADSVKGRFTISRDNSKNTLYLQMNSLRAEDTAVYYCARVWRNHLDYWGQGTLVTVSS
VL: DIQMTQSPSSLSASVGDRVTITCSGDKLGHTYTSWYQQKPGKAPKLLIYRASTLASGVPSRFSGSGSGTDFTLTISSLQPEDFATYYCQQGYTLPWTFGQGTKVEIK
notes: Variable domains only
B2: TIGIT-471-011 (antibody, V domains shown)
VH: EVQLLESGGGLVQPGGSLRLSCAASGFTFSNYGVSWVRQAPGKGLEWVSSIDWHGWVTYYADSVKGRFTISRDNSKNTLYLQMNSLRAEDTAVYYCVKNALRFDYWGQGTLVTVSS
VL: DIQMTQSPSSLSASVGDRVTITCSASQDINKYLNWYQQKPGKAPKLLIYHTSRLQSGVPSRFSGSGSGTDFTLTISSLQPEDFATYYCQQVVWRPFTFGQGTKVEIK
notes: Variable domains only
B3: TIGIT-471-027 (antibody, V domains shown)
VH: B2 VH with S50W, D52S, W53P, W56A, V57L, R87K, V97A, N99G, A100R, L101R
VL: DIQMTQSPSSLSASVGDRVTITCRASQTISSYLNWYQQKPGKAPKLLIYENNNRPSGVPSRFSGSGSGTDFTLTISSLQPEDFATYYCQQSYIIPPTFGQGTNVEIK
notes: Variable domains only
B4: TIGIT-471-038 (antibody, V domains shown)
VH: EVQLLESGGGLVQPGGSLRLSCAASGFTFSNYGVSWVRQAPGKGLEWVGYINPSRGYTYYADSVKGRFTISRDNSKNTLYLQMNSLRAEDTAVYYCARSYGGGFDYWGQGTLVTVSS
VL: DIQMTQSPSSLSASVGDRVTITCRASQTIERRLNWYQQKPGKAPKLLIYDASSLHTGVSSRFSGSGSGTYFTLTISSLQAEDFATYYCQQSYIIPPTFGQGTKVEIK
notes: Variable domains only
B5: TIGIT-471-048 (antibody, V domains shown)
VH: B4 VH
VL: B4 VL with R24G, S59P, F62I, Y70D, A80P, D82H
notes: Variable domains only
B6: TIGIT-29-01 VHH-Fc (Fc fusion)
chain: EVQLVESGGGLVQAGGSLRLSCAASGRTFSNYAMGWFRQAPGKEREFVAAITWSGTRTDYADSVKGRFTISADNAKNTVYLQMNSLKPEDTAVYYCAAAAWTIYEYDYWGQGTQVTVSSGGGGSEPKSSDKTHTCPPCPAPELLGGPSVFLFPPKPKDTLMISRTPEVTCVVVDVSHEDPEVKFNWYVDGVEVHNAKTKPREEQYNSTYRVVSVLTVLHQDWLNGKEYKCKVSNKALPAPIEKTISKAKGQPREPQVYTLPPSREEMTKNQVSLTCLVKGFYPSDIAVEWESNGQPENNYKTTPPVLDSDGSFFLYSLTVDKSRWQQGNVFSCSVMHEALHNHYTQKSLSLSPG
notes: also called 29-1
B7: TIGIT-29-01 (Fc fusion)
chain: B6 chain
notes: VHH-Fc; also called 29-1
B8: TIGIT-SC58 (Fc fusion)
VHH: EVQLVESGGGLVQPGGSLRLSCAASGFTLGYYVMGWFRQAPGKEREFVATINWSGTLTSYADSVKGRFTISADNSKNTAYLQMNSLKPEDTAVYYCARWVGPKYYFDYWGQGTLVTVSS
notes: VHH-Fc
B9: TIGIT-SC24 (Fc fusion)
VHH: EVQLVESGGGLVQPGGSLRLSCAASGFTFDRSWMGWFRQAPGKEREVVASITSGGSTYYADSVKGRFTISADNSKNTAYLQMNSLKPEDTAVYYCAADVWYGSTWRNWGQGTLVTVSS
notes: VHH-Fc
B10: TIGIT-SC41 (Fc fusion)
VHH: EVQLVESGGGLVQPGGSLRLSCAASGMTTIGPMGWFRQAPGKEREFVASIAWGDGNTYYADSVKGRFTISADNSKNTAYLQMNSLKPEDTAVYYCVRGGSRTLWGQGTLVTVSS
notes: VHH-Fc
B11: TIGIT-SC63 (Fc fusion)
VHH: EVQLVESGGGLVQPGGSLRLSCAASGRAIGSYGMGWFRQAPGKEREFVATISVSGVYTYYADSVKGRFTISADNSKNTAYLQMNSLKPEDTAVYYCARATPGGVVPWGQGTLVTVSS
notes: VHH-Fc
B12: Tiragolumab (antibody, V domains shown)
VH: EVQLQQSGPGLVKPSQTLSLTCAISGDSVSSNSAAWNWIRQSPSRGLEWLGKTYYRFKWYSDYAVSVKGRITINPDTSKNQFSLQLNSVTPEDTAVFYCTRESTTYDLLAGPFDYWGQGTLVTVSS
VL: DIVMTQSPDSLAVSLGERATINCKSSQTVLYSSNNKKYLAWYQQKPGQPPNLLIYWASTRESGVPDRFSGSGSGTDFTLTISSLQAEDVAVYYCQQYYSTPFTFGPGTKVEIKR
B13: TIGIT-SC97 (Fc fusion)
VHH: EVQLVESGGGLVQPGGSLRLSCAASGTAASFNPMGWFRQAPGKEREFVAAISWSGGSTNYADSVKGRFTISADNSKNTAYLQMNSLKPEDTAVYYCVTYSAYDFRNAWGQGTLVTVSS
notes: VHH-Fc

target: T1, TIGIT; assay: SPR (Carterra)

Row | Kd [nM] | RU [RU] | koff [s⁻¹] | kon [M⁻¹ s⁻¹] | Binder
1 | 395 | 93.7 | 0.0484 | 123000 | B1
2 | 7290 | 1080 | 0.269 | 36900 | B2
3 | 60 | 57.5 | 0.00926 | 154000 | B3
4 | 55.4 | 78 | 0.0122 | 221000 | B4
5 | 51.4 | 122 | 0.0192 | 373000 | B5

target: T2, TIGIT; assay: Carterra SPR, VHH-Fc

Row | Kd [nM] | kon [M⁻¹ s⁻¹] | Binder
6 | 68 | 1e+09 | B6

target: T3, TIGIT (T cell immunoreceptor with Ig …); assay: SPR (Carterra), VHH-Fc
Text: The Carterra SPR system was used to assess binding affinity and affinity distribution for VHH-Fc variants. […] Table 5A provides specific values for the VHH-Fc clones for ELISA, Protein A (mg/ml), and KD (nM). FIG. 7A and FIG. 7B depict TIGIT affinity distribution for the VHH libraries, over the 20-4000 affinity threshold (FIG. 7A; monovalent KD) and the 20-1000 affinity threshold (FIG. 7B; monovalent KD).

Row | Kd [nM] | Binder
7 | 68 | B7

target: T4, TIGIT on PBMCs; assay: cell-based or functional assay

Row | T-cell activation EC50 [nM] | Binder
8 | 2.08 | B8
9 | 7.53 | B9
10 | 1.83 | B10
11 | 88.1 | B11
12 | 13.5 | B12
13 | 7.11 | B13

target: T3, TIGIT (T cell immunoreceptor with Ig …); assay: ELISA, VHH-Fc clone on TIGIT

Row | ELISA | Binder
14 | 10.4 | B7

target: T5, human TIGIT-Fc; assay: CD155 competition ELISA, titration
Procedure: (§1) TIGIT/CD155 inhibition of VHH-Fcs were assessed using an ELISA assay (Table 10B). Briefly, human TIGIT-Fc was coated on a plate & then incubated with VHH-Fcs and human CD155-biotin. Bound CD155-biotin was detected using a streptavidin-HRP conjugate visualized with TMB. Strong inhibitors from the single point screen were titrated to determine EC50 (Table 10C).

Row | EC50 [nM] | Binder
15 | 0.303 | B8
16 | 0.423 | B9
17 | 10 | B10
18 | 135 | B11
19 | 0.57 | B12
20 | 0.971 | B13

target: T5, human TIGIT-Fc; assay: CD155 competition ELISA, single point
Procedure: as §1

Row | OD (450 nm) [OD] | Binder
21 | 0.0846 | B8
22 | 0.0781 | B9
23 | 0.0921 | B10
24 | 0.0781 | B11
25 | 0.0858 | B12
26 | 0.111 | B13

target: T1, TIGIT; assay: TIGIT:CD155 blockade assay, competitor CD155

Row | IC50 [nM] | Binder
27 | 3.2 | B1
28 | 14.4 | B2
29 | 13.5 | B3
30 | 5.9 | B4
31 | 9.8 | B5
